Source: patent US6413759

Columns and labels:
[1] = biological target: T1, SKC-2-N13 (SKC-2 with deletion of the first 13 N-terminal residues)
T1 chain: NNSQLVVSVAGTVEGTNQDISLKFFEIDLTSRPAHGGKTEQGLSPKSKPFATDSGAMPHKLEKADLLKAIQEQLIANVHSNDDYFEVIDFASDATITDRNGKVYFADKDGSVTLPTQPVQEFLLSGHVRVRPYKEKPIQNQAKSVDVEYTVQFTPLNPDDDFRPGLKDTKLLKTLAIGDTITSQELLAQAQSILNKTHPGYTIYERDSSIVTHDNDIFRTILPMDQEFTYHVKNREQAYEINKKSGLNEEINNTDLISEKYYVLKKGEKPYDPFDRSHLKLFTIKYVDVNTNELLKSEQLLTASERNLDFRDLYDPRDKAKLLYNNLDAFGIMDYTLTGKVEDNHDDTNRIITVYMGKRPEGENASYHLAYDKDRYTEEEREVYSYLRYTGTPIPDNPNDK

[2] = biological target: T2, SKC-2-C42 (SKC-2 with deletion of the last 42 residues, 373-414)
T2 chain: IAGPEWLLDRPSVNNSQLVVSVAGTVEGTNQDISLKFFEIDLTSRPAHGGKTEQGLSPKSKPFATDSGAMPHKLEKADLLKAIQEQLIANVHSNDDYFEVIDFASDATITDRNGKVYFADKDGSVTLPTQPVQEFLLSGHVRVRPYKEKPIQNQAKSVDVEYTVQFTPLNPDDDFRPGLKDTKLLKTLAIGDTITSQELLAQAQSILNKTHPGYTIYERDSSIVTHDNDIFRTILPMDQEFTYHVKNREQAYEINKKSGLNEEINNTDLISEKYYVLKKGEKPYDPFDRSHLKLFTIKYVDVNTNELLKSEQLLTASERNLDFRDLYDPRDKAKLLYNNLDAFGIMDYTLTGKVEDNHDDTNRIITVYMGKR

B1: human plasminogen (protein)
chain: EPLDDYVNTQGASLFSVTKKQLGAGSIEECAAKCEEDEEFTCRAFQYHSKEQQCVIMAENRKSSIIIRMRDVVLFEKKVYLSECKTGNGKNYRGTMSKTKNGITCQKWSSTSPHRPRFSPATHPSEGLEENYCRNPDNDPQGPWCYTTDPEKRYDYCDILECEEECMHCSGENYDGKISKTMSGLECQAWDSQSPHAHGYIPSKFPNKNLKKNYCRNPDRELRPWCFTTDPNKRWELCDIPRCTTPPPSSGPTYQCLKGTGENYRGNVAVTVSGHTCQHWSAQTPHTHNRTPENFPCKNLDENYCRNPDGKRAPWCHTTNSQVRWEYCKIPSCDSSPVSTEQLAPTAPPELTPVVQDCYHGDGQSYRGTSSTTTTGKKCQSWSSMTPHRHQKTPENYPNAGLTMNYCRNPDADKGPWCFTTDPSVRWEYCNLKKCSGTEASVVAPPPVVLLPDVETPSEEDCMFGNGKGYRGKRATTVTGTPCQDWAAQEPHRHSIFTPETNPRAGLEKNYCRNPDGDVGGPWCYTTNPRKLYDYCDVPQCAAPSFDCGKPQVEPKKCPGRVVGGCVAHPHSWPWQVSLRTRFGMHFCGGTLISPEWVLTAAHCLEKSPRPSSYKVILGAHQEVNLEPHVQEIEVSRLFLEPTRKDIALLKLSSPAVITDKVIPACLPSPNYVVADRTECFITGWGETQGTFGAGLLKEAQLPVIENKVCNRYEFLNGRVQSTELCAGHLAGGTDSCQGDSGGPLVCFEKDKYILQGVTSWGLGCARPNKPGVYVRVSRFVTWIEGVMRNN
specific activity (agarose-fibrin plates, chromogenic substrate, clot lysis) [1]: 2000-4000 lU/mg | specific activity (agarose-fibrin plates, chromogenic substrate, clot lysis) [2]: 50000-100000 IU/mg
